Test results published in patent US12441811B2, “Compositions and methods for treating serpin B13 disorders” (REGENTS OF THE UNIVERSITY OF MINNESOTA, priority 2019, dated 2025).
Entries after “also recorded” stand apart in the source; their conditions may differ.

Experiments:
[1] = test system: Notch1 receptor; assay: Examination of Notch1 receptor in embryonic pancreas (Western blot, flow cytometry, qPCR); type: cell-based, mouse; conditions: for levels of active Notch intracellular domain (aNICD): embryonic pancreas, antibody vs control Ab
Protocol: Staining for flow cytometry. BD LSRFortessa X-20, LSR-II and FACSCanto-II were used for FACS analysis. Positive populations of cells were gated and counted using FlowJo ver.10 software. For the islet cells isolated from adult mice, intracellular staining to detect glucagon and insulin was used to count single-positive as well as double-negative cells. In the cells isolated from embryonic pancreas explants, intracellular staining was performed to detect Ngn3, CK19, and active Notch, and extracellular staining was used to detect the extracellular Notch domain, EpCAM, CD31 and CD45.
Western blotting. Pancreatic tissues were processed from E16.5 embryos as single samples and directly used for lysis. Embryonic pancreas explants from E12.5 embryos were cultured in vitro with anti-serpinB13 mAb (or control Ab) for 24 or 48 hours, then, three explant cultures were combined and lysed. The samples were washed two times in ice-cold PBS and lysed with gentle pipetting for 10 minutes with additional tap-vortexing for 15 minutes in RIPA buffer containing Halt protease inhibitors (cat. no. 1862209, Thermo Fisher Scientific). Equal amounts of protein in each sample were run under reducing conditions on Bis-Tris BOLT gradient gel (4-12%) or NUPAGE Tris-acetate gradient gels (4-12%) (both from Thermo Fisher Scientific), and transferred onto […] nitrocellulose or activated PVDF membranes. The membranes were blocked with 5% skim milk and stained with primary and secondary antibodies, as indicated. The Western blots were developed with SuperSignal West Pico Chemiluminescent Substrate or West Femto Maximum Sensitivity Substrate (cat. nos. […] and […], respectively; both from Thermo Scientific), and scanned using the ChemiDoc™ MP Imaging System (Bio-Rad, Hercules, […], USA).
Quantitative real-time PCR. Total RNA from embryonic pancreases was extracted using the RNeasy UCP Micro kit (cat. no. 73934; Qiagen, Hilden, Germany) to measure expression of the Notch1 gene. One hundred to […] of the total RNA per group was reverse transcribed to cDNA using the iScript cDNA Synthesis Kit (cat. no. 1708891; Bio-Rad). Quantitative PCR assays were performed on an Applied Biosystems QuantStudio 3 real-time PCR system using cDNA and the Kapa Sybr Fast reagent (cat. no. 0795959100; Roche). Actin-R was used as a reference gene. The primer sequence for Notch1 was as follows: forward—5′[…]3′ and reverse—5′ […]3′.

[2] = test system: Ngn3+ endocrine progenitor cells; assay: Ngn3+ cells in embryonic pancreas after antibody injection into pregnant mice; type: in vivo, mouse; conditions: for number of Ngn3+ cells in the embryonic pancreas: pregnant mice i.p. 50 μg daily E10.5 through E13.5, E16.5 and birth, vs control Ab
Protocol: The control mouse mAb (clone TIB92) was from ATCC (Manassas, VA, USA). The recombinant human control Ab (cat. No 403502) was from BioLegend (San Diego, CA). In most of the experiments, anti-serpinB13 mAb (clone B29) or control mouse mAb was injected i.p. into pregnant female mice at 50 μg for four consecutive days, starting at gestational day E10.5 (total dose of 200 μg). In the lineage tracing experiments in adult mice, B29 was injected i.p. for 7 days at 100 μg/injection during the first week after STZ treatment (total dose of 700 μg).
Processing of pancreatic tissue for immunofluorescence microscopy. The pancreatic tissues were isolated and fixed either overnight (adult pancreases), or for one hour (embryonic pancreas explants), in 2% PFA (pH 7.4), followed by a two-step saturation process: first in a 30% sucrose solution in PBS and then in optimal cutting temperature (OCT) compound. After complete saturation, the tissues were imbedded in OCT using Cryomold and then snap frozen in an ethanol/dry ice bath. The OCT blocks were serially cut through the entire organ to obtain representative sections every 600 μm (6 to 8 sections per adult pancreas), 50 μm (12 to 14 sections per E16.5 embryonic pancreas), 35 μm (10 to 12 sections per E14.5 embryonic pancreas), or 15 μm (10 to 12 sections per E12.5 embryonic pancreas cultured for 1 to 3 days). For the embryonic linage tracing experiments, three largest sections were taken for the analysis. For all other experiments involving immunofluorescence microscopy, all obtained sections were analyzed.
The sections from the pancreases of embryos at age E14.5 and E16.5, and newborn pups (OP), were stained with anti-Ngn3 antibody to determine the total number of endocrine progenitors cells for all sections per explant combined (FIG. 9G, FIG. 17A). Alternatively, the sections representing the pancreases of embryos at age E12.5 (which are considerably smaller) were stained with both anti-Ngn3 and anti-CK19 antibodies to determine the fraction of CK19-positive area that was occupied by Ngn3− positive staining (FIGS. 9D, 10A, 10C, 12D, 12G, 12J and FIGS. 15A, 20B). The following formula was used to adjust for any differences in the pancreas size: (Ngn3^+ cell number/μm^2 of CK19^+ cells)×10^5.
Image analysis. […] To classify and quantify the images in unbiased fashion, we defined the following four classes for the analysis: Ngn3^+ cells, the clusters of cytokeratin 19^+ cells, the negatively stained areas, and background (e.g., the area outside of tissue sample). […] For the unbiased quantitative analysis of β-cells and islets in the whole pancreatic sections, Visiopharm Author module was trained to recognize insulin-positive β-cell clusters with diameter greater than 50 μm as well as negatively stained section area. […]

B1: B29: mouse monoclonal antibody to serpin B13, clone B29; heavy chain SEQ ID NO:14, kappa light chain SEQ ID NO:16 (antibody, V domains shown)
VH: QIQLVQSGPELKKPGETVKISCKASGYTFTTYGMSWVKQAPGKGLKWMGWINTYSGMPTYADDFKGRFAFSLETSATTAYLQINNLKNEDTATYFCARPLLGLDYWGQGTTLTVSS
VL: DIVMTQTPLSLSVTIGQPASISCKSSQSLLHSDGKTFLNWFLQRPGQSPKLLIYLVSKLESGIPDRFSGSGSGTDFTLKISRVEVEDLGVYYCLQHTHFPLTFGAGTKLEIK
~60 kD degradation fragments of Notch1 ([1]; E12.5 explants treated 48 hours): induction | levels of active Notch intracellular domain (aNICD) [1]: diminished | levels of active Notch intracellular domain (aNICD) ([1]; listed as mAb): markedly reduced levels | expression of the ectodomain of the Notch1 receptor ([1]; embryonic pancreatic tissue, in vivo and in vitro exposure, 24 and 48 hours): time-dependent reduced expression | transcriptional level of Notch1 ([1]; quantitative PCR): relatively intact | fractions of pancreatic microscopic sections positively stained with anti-insulin antibody ([2]; E16.5 embryos exposed in vivo vs control Ab): significantly higher fractions | Ngn3 protein levels ([2]; Western blot, E16.5, pregnant mice i.p. 50 μg daily E10.5-E13.5): robust increase | number of Ngn3+ cells in the embryonic pancreas [2]: increased; also recorded: significant increase; also recorded: robust increase | number of Ngn3+ cells in the embryonic pancreas ([2]; listed as mAb): robust increase
